Blank lines part the entries; values can stand above or below the substance they belong to. [ ]: non-standard residue; d: D form. The star is where a group is joined. Cha = N[C@@H](CC1CCCCC1)C(=O)O; Pent4ynoyl = C#CCCC(=O)*; F5 = not defined here; βAla = NCCC(=O)O
What was measured:
[1] = target: T1, Recombinant human Cathepsin B (Homo sapiens, UniProt P07858); test: Enzyme activation profile of Q65, Cathepsin B; format: biochemical; details: probe 0.5 μM, enzyme 0.05 μM, room temperature, monitored 0-24 hours; FIG. 5
T1 construct: purchased R&D Systems
Description: The reactions were performed with appropriate buffer at room temperature in a 96-well plate with a final assay volume of 250 μL and probe and enzyme concentrations of 0.5 μM and 0.05 μM, respectively. The buffer for Cathepsin B was 25 mM MES (pH 5.0), 1 mM DTT. Recombinant human Cathepsin B (R&D Systems) was activated in buffer of 25 mM MES (pH 5.0) and 5 mM DTT for 15 minutes at room temperature. Recombinant human Cathepsin L (R&D Systems) was activated in buffer of 50 mM MES (pH 6.0), 5 mM DTT, for 15 minutes on ice. Recombinant mouse Cathepsin Z (R&D Systems) was activated in buffer of 25 mM NaOAc (pH 3.0), 5 mM DTT for 5 minutes at room temperature. The buffer for plasmin (CalBiochem) and trypsin (Sigma) was PBS at pH 7.4.
The plate was incubated at room temperature and the activity monitored at 0, 1, 3, 5, and 24 hours with a Gemini (Molecular Devices) plate reader at excitation wavelength 663 nm, emission 690 nm, and cut off 665 nm. The activity was calculated as the fold of activation by comparing the fluorescence of the enzyme with probe to the fluorescence of probe alone.

[2] = tested on: inflamed atherosclerotic plaques of high cholesterol fed apoE-/- mice; test: Cardiovascular disease imaging, fluorescence reflectance; format: in vivo; details: 2 nmol, 24 hours post-injection, ex vivo fluorescence reflectance imaging; FIG. 8
Description: High cholesterol fed apoE−/− mice were injected with 2 nmol of imaging agent and in vivo imaging was performed with ex vivo fluorescence reflectance imaging.

[3] = tested on: activated humanized rabbit Cathepsin K; test: Enzyme activation profile of Q92 and Q93, Cathepsin K; format: biochemical; details: probe 0.5 μM, enzyme 0.05 μM, room temperature, 0-24 hours; panel also Cathepsin B, L, MMP-2, MMP-9; FIG. 6
Description: The reactions were performed with appropriate buffer at room temperature in a 96-well plate with a final assay volume of 250 μL and probe and enzyme concentrations of 0.5 μM and 0.05 μM respectively. The buffer for activated humanized rabbit Cathepsin K (Merck) was 50 mM MES (pH 5.0), 2.5 mM EDTA, 2.5 mM DTT. The buffer for Cathepsin B was 25 mM MES (pH 5.0), 1 mM DTT. The recombinant human Cathepsin B (R&D Systems) was activated in buffer of 25 mM MES (pH 5.0) and 5 mM DTT for 15 minutes at room temperature. The recombinant human Cathepsin L (R&D Systems) was activated in buffer of 50 mM MES (pH 6.0), 5 mM DTT, for 15 minutes on ice. The buffer for MMP-2 (BIOMOL) and MMP-9 (BIOMOL) was 50 mM Tris (pH 7.5), 10 mM CaCl2, 150 mM NaCl, and 0.05% Brij-35 detergent. The plate was incubated at room temperature and the activity was monitored at 0, 1, 3, 5, and 24 hours with a Gemini (Molecular Devices) plate reader at excitation wavelength 663 nm, emission 690 nm, and cut off 665 nm. The released fluorescent unit was determined by subtracting the fluorescence of the probe alone from the total fluorescence.

[4] = tested on: ovariectomized mice, tibia region; test: Bone imaging, ovariectomy induced osteoporosis; format: in vivo, BALB/c female mice; details: intravenous, 4 and 24 hours post-injection, fluorescence molecular tomography; FIG. 7
Description: BALB/c female mice 7 weeks old (Charles River Laboratory, Wilmington, Mass.) were subjected to ovariectomy or sham surgery to induce osteoporosis. After one to two weeks after surgery, the mice were injected intravenously with imaging agent [F5]-His-Gly-Pro-Asn-Lys(F5)-[PEG20kDa] (SEQ ID NO:427) (Agent Q94). Imaging was conducted at various time points using a Fluorescence Molecular Tomography system (VisEn Medical, Bedford, Mass.).

[5] = target: T2, recombinant human Renin (rhRenin) (Homo sapiens, UniProt P00797); test: Enzyme activation profile of R agents, renin; format: biochemical; details: probe 1 μM, enzyme 100 nM, 37 C, 24 hours; FIG. 11
T2 construct: purchased Proteos
T2 sequence (P00797 67-406): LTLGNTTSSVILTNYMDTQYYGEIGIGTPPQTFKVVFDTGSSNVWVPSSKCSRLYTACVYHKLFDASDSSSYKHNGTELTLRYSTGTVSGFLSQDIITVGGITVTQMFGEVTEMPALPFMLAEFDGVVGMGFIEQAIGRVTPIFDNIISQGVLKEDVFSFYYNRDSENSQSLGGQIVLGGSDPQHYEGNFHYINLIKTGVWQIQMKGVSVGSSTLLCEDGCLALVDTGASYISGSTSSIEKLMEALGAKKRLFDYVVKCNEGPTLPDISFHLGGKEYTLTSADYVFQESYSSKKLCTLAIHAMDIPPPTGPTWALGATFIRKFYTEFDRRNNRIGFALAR
Description: (§1) The reactions were performed with appropriate buffer in a 96-well plate with a final assay volume of 250 μL and probe and enzyme concentrations of 1 μM and 100 nM, respectively. The reactions were incubated at 37 C for Renin and room temperature for the other proteases. The buffer for human neutrophil Cathepsin G (BIOMOL) was 100 mM Tris (pH 7.5), 1.6 M NaCl. The buffer for Cathepsin D (BIOMOL) was 100 mM Formic Acid (pH 3.3). The buffer for recombinant human neutrophil elastase (Innovative Research) was 100 mM Tris (pH 7.5). The buffer for plasmin (CalBiochem) and trypsin (Sigma) was 1× phosphate buffered saline (PBS) (pH 7.4). The buffer for recombinant human Renin (rhRenin) (Proteos) and recombinant rat Renin (rrRenin) (Proteos) was 50 mM MOPS (pH 7.4), 100 mM NaCl, with freshly prepared 0.002% tween-20. The plate was incubated at the appropriate temperature and the activity was monitored at 24 hours with a Gemini (Molecular Devices) plate reader at excitation wavelength 663 nm, emission 690 nm, and cut off 665 nm. The released fluorescent unit was determined by subtracting the fluorescence of the probe alone from the total fluorescence.

[6] = target: T3, recombinant human neutrophil elastase (Homo sapiens, UniProt P08246); test: Enzyme activation profile of R agents, neutrophil elastase; format: biochemical; details: probe 1 μM, enzyme 100 nM, room temperature, 24 hours; FIG. 11
T3 construct: purchased Innovative Research
T3 sequence (P08246 30-267): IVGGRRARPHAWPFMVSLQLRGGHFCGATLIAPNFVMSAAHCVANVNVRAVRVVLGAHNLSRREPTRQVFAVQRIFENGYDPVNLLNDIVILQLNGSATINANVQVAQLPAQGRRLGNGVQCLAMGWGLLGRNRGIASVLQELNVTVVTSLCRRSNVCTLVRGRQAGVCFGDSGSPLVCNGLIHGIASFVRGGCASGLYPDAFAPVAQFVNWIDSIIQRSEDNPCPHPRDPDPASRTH
Description: as §1

[7] = target: T4, human neutrophil Cathepsin G (Homo sapiens, UniProt P08311); test: Enzyme activation profile of R agents, Cathepsin G; format: biochemical; details: probe 1 μM, enzyme 100 nM, room temperature, 24 hours; FIG. 11
T4 construct: purchased BIOMOL
T4 sequence (P08311 21-244): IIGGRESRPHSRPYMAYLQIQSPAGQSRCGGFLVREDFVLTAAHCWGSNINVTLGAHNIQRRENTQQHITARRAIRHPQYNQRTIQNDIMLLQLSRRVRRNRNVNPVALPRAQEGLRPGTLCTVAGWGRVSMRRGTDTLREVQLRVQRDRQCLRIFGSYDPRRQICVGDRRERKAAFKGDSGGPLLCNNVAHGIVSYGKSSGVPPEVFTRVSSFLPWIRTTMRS
Description: as §1

trypsin = test: Enzyme activation profile of R agents, trypsin; format: biochemical; details: probe 1 μM, enzyme 100 nM, room temperature, 24 hours; FIG. 11
Description: as §1

[8] = tested on: kidneys of mice on a low sodium diet; test: Renal imaging, low sodium diet versus control diet; format: in vivo, C57BL6 mice; details: intravenous 0.2-4 nmol/mouse, imaging at 24 hrs, fluorescence molecular tomography; FIG. 12
Description: C57BL6 mice (Jackson Laboratories) were fed a sodium deficient diet (0.02% Na) and water was replaced with a solution of amiloride (0.1 mg/5 mL or 5 mg/kg/day) for 2 days. Control C57BL6 mice were fed regular chow diet and water. Imaging agents [F5]-Lys-His-Pro-Phe-His-Leu-Val-Ile-His-Lys(F5)-[OH] (SEQ ID NO:401) (R20) and ([F5]-Lys-His-Pro-Phe-His-Leu-Val-Ile-His-Lys(F5)-[NHmPEG20k] (SEQ ID NO:428) (R21) were injected intravenously at different concentrations (0.2, 0.7, 2 and 4 nmol/mouse) following 2 days on a low salt diet. Imaging was conducted at 24 hrs using a Fluorescence Molecular Tomography system (VisEn Medical, Woburn Mass.).

Substance: [F5]-His-Gly-Pro-Asn-Lys(F5)-[PEG20kDa] (F5-HGPNK(F5)-PEG20kDa; reading uncertain; also: printed as [F5]-His-Gly-Pro-Asn-Lys(F5)-[PEG20kDa]) [Agent Q94]
probe signal in tibia region, ovariectomized versus sham mice [4]: increased probe signal detected in the tibia region

Substance: [F5]-Lys(Ac)-His-Pro-Phe-His-Leu-Val-Ile-His-Lys(F5)-[OH] (F5-K(Ac)HPFHLVIHK(F5)-OH; reading uncertain; also: printed as [F5]-Lys(Ac)-His-Pro-Phe-His-Leu-Val-Ile-His-Lys(F5)-[OH]) [Agent R23]
activation by recombinant human renin (released fluorescent unit) [5]: activated primarily by recombinant human rennin

Substance: [F5]-Lys-His-Pro-Phe-His-Cha-Val-Ile-His-Lys(F5)-[OH] (F5-KHPFH[Cha]VIHK(F5)-OH; reading uncertain; also: printed as [F5]-Lys-His-Pro-Phe-His-Cha-Val-Ile-His-Lys(F5)-[OH]) [Agent R24]
activation by recombinant human renin (released fluorescent unit) [5]: activated primarily by recombinant human rennin

Substance: [F5]-Lys-His-Pro-Phe-His-Leu-Val-Ile-His-Lys(F5)-[OH] (F5-KHPFHLVIHK(F5)-OH; reading uncertain; also: printed as [F5]-Lys-His-Pro-Phe-His-Leu-Val-Ile-His-Lys(F5)-[OH]) [Agent R20]
activation by recombinant human renin (released fluorescent unit) [5]: activated primarily by recombinant human rennin | kidney signal, low sodium diet versus control diet [8]: increased signal relative to the kidneys in the mice on the control diet

Further lines, with some results ahead:

activation by Cathepsin B (fold of activation) [1]: activated by Cathepsin B
Substance: Pentynoyl-Lys(F5)-Gly-Phe-Leu-Gly-βAla-Lys(F5)-PEG20kDa (Pent4ynoyl-K(F5)GFLG[βAla]K(F5)-PEG20kDa; reading uncertain; also: printed as Pentynoyl-Lys(F5)-Gly-Phe-Leu-Gly-βAla-Lys(F5)-PEG20kDa) [Agent Q65]
fluorescence in atherosclerotic plaques [2]: Fluorescence was detected in plaque-laden vascular sections in the aortic root, the arch and carotid arteries

activation by Cathepsin K (released fluorescent unit) [3]: activated primarily by Cathepsin K
Substance: [F5]-His-Gly-Pro-Arg-Lys(F5)-[PEG20kDa] (F5-HGPRK(F5)-PEG20kDa; reading uncertain; also: printed as [F5]-His-Gly-Pro-Arg-Lys(F5)-[PEG20kDa]) [Agent Q92]

activation by Cathepsin K (released fluorescent unit) [3]: activated primarily by Cathepsin K
Substance: [F5]-His-Gly-Pro-Asn-Lys(F5)-His-Gly-Pro-Asn-βA-[PEG20kDa] (F5-HGPNK(F5)HGPN[βAla]-PEG20kDa; reading uncertain; also: printed as [F5]-His-Gly-Pro-Asn-Lys(F5)-His-Gly-Pro-Asn-βA-[PEG20kDa]) [Agent Q93]

activation by recombinant human renin (released fluorescent unit) [5]: activated | activation by human neutrophil elastase (released fluorescent unit) [6]: activated | activation by human neutrophil cathepsin (released fluorescent unit) [7]: activated | activation by trypsin (released fluorescent unit) (trypsin): activated
Substance: [F5]-Lys-His-Pro-Phe-His-Leu-Val-Ile-His-Lys(F5)-[NHmPEG5k] (F5-KHPFHLVIHK(F5)-NHmPEG5k; reading uncertain; also: printed as [F5]-Lys-His-Pro-Phe-His-Leu-Val-Ile-His-Lys(F5)-[NHmPEG5k]) [Agent R27]

activation by recombinant human renin (released fluorescent unit) [5]: activated | activation by human neutrophil elastase (released fluorescent unit) [6]: activated | activation by human neutrophil cathepsin (released fluorescent unit) [7]: activated | activation by trypsin (released fluorescent unit) (trypsin): activated
Substance: [F5]-Lys-His-Pro-Phe-His-Leu-Val-Ile-His-Lys(F5)-[NHmPEG20k] (F5-KHPFHLVIHK(F5)-NHmPEG20k; reading uncertain; also: printed as [F5]-Lys-His-Pro-Phe-His-Leu-Val-Ile-His-Lys(F5)-[NHmPEG20k]) [Agent R21]
kidney signal, low sodium diet versus control diet [8]: increased signal relative to the kidneys in the mice on the control diet

From US9999687B2, “Fluorescent imaging agents” (VisEn Medical, Inc., priority 2008, dated 2018)
